# Test results: patent US20130196915, “AFFINITY HYDROGELS FOR CONTROLLED PROTEIN RELEASE” (published 2013)
# What was measured:
# PDGF-BB [1] = target: T1, PDGF-BB (Homo sapiens, UniProt P01127 P01127:82-190); experiment: SPR; PBS, 0.05% Tween 20; conditions: tags: R&D Systems, amine-coupled to SPR chip, chain copies: 2 (inferred, homodimer)
# Description: The molecular interaction between PDGF-BB and the aptamers were studied by SPR spectrometry (SR7000DC, Reichert Analytical Instrument, Depew, N.Y.). PDGF-BB was immobilized onto a sensor chip via amide synthesis. An aqueous solution of NHS (0.0115 g/ml) and EDC (0.038 g/ml) was flowed over the sensor chip at a flow rate of 30 μL/min. After the EDC/NHS-mediated activation of the biochip surface for 10 min, 10 μg/mL of PDGF-BB solution (pH 8.5) was flowed over the chip surface for protein immobilization. Prior to the molecular recognition analysis, the sensor chip was equilibrated for 30 min with a phosphate-buffered saline (PBS) solution containing 0 05% Tween 20. During the binding analysis, 500 nM of binding solution containing either anti-PDGF-BB aptamer or its control was flowed over the biochip at 30 μL/min. The biochip was regenerated with 1 M of NaCl. The binding analysis was repeated twice to confirm the reproducibility. The equilibrium dissociation constant (KD) was calculated with direct curve fitting of the sensorgrams using the software provided by the manufacturer.
# Polyacrylamide gel and anti-platelet-derived growth factor-BB (PDGF-BB) aptamer were used as a model system. […] The binding functionality was evaluated with surface plasmon resonance (SPR) analysis, which directly provides information on the binding affinity.
# PDGF-BB [2] = target: T1, PDGF-BB; experiment: SPR; PBS pH 7.4, 0.05% Tween 20; equilibrium analysis; conditions: tags: R&D Systems; amine-coupled to SPR chip; chain copies: 2 (inferred, homodimer)
# Description: (§1) The affinities of the aptamers were measured with surface plasmon resonance (SPR) spectrometry (SR7000DC, Reichert Analytical Instrument, Depew, N.Y.). Carboxyl group-functionalized sensor chips were purchased from the Reichert Analytical Instrument. The chips were initially activated with 0.2 M EDC/0.1 M NHS for 10 min After the activation step, PDGF-BB (20 μg/ml in 25 mM Na₂HPO₄ at pH 8.5) was flowed over the activated sensor chip for protein immobilization. Before the test, the system was equilibrated with the running buffer for 30 min. The running buffer was made of PBS buffer (pH 7.4) containing 0.05% Tween 20. During the test, the aptamer solution was flowed over the sensor chip at a flow rate of 30 μL/minute for 5 minutes. Subsequently, the flowing solution was switched to the running buffer for molecular dissociation. After each test, the sensor chip was regenerated by flowing 1 M NaCl in the channel for 2 minutes and then washed with the running buffer. To determine the dissociation constants, a series of aptamer solutions were prepared with the concentration ranging from 3.13 to 200 nM. The data were processed with the Scrubber 2.0 software (BioLogic Software, Australia). The responses from the reference channel were subtracted from the responses from analyte channel before data analysis to minimize the effects of reflective index changes, nonspecific binding, and instrument drift. The dissociation constant (KD) was determined by fitting the data to a simple biomolecular “1:1 binding” model.
# The interaction of a molecular pair was determined by not only molecular association but also molecular dissociation. The dissociation rate constant divided by the association rate constant is defined as the equilibrium dissociation constant (KD). Thus, a series of aptamer solutions were prepared and the aptamer-protein interactions were characterized by calculating the dissociation constants (FIG. 19). The concentration-dependent responses were processed to calculate KD using an equilibrium analysis. […]
# PDGF-BB [3] = target: T1, PDGF-BB; experiment: SPR; reference for normalized response; PBS pH 7.4, 0.05% Tween 20; conditions: tags: R&D Systems; amine-coupled to SPR chip; chain copies: 2 (inferred, homodimer); three-stem junction with 10-nt 5' tail
# Description: The affinities of the aptamers were measured with surface plasmon resonance (SPR) spectrometry (SR7000DC, Reichert Analytical Instrument, Depew, N.Y.). Carboxyl group-functionalized sensor chips were purchased from the Reichert Analytical Instrument. The chips were initially activated with 0.2 M EDC/0.1 M NHS for 10 min After the activation step, PDGF-BB (20 μg/ml in 25 mM Na₂HPO₄ at pH 8.5) was flowed over the activated sensor chip for protein immobilization. Before the test, the system was equilibrated with the running buffer for 30 min. The running buffer was made of PBS buffer (pH 7.4) containing 0.05% Tween 20. During the test, the aptamer solution was flowed over the sensor chip at a flow rate of 30 μL/minute for 5 minutes. Subsequently, the flowing solution was switched to the running buffer for molecular dissociation. After each test, the sensor chip was regenerated by flowing 1 M NaCl in the channel for 2 minutes and then washed with the running buffer. To determine the dissociation constants, a series of aptamer solutions were prepared with the concentration ranging from 3.13 to 200 nM. The data were processed with the Scrubber 2.0 software (BioLogic Software, Australia). […] The dissociation constant (KD) was determined by fitting the data to a simple biomolecular “1:1 binding” model.
# PDGF-BB [4] = target: T1, PDGF-BB; experiment: SPR; PBS with 500 nM scrambled CO during dissociation; conditions: tags: R&D Systems; amine-coupled to SPR chip; chain copies: 2 (inferred, homodimer)
# Description: The molecular interaction between the PDGF-BB and its aptamer was studied using the SPR spectrometry (SR7000DC; Reichert Analytical Instrument; Depew, N.Y.). A carboxyl group-functionalized sensor chip (Reichert Analytical Instrument; Depew, N.Y.) was activated with NHS and EDC for PDGF-BB immobilization. The binding solution of 100 nM of either anti-PDGF-BB aptamers or scrambled aptamers was flowed over the biochip for 5 minutes (30 μL/min) for the analysis of molecular association. Subsequently, the washing solution (PBS, PBS containing 500 nM of CO, or PBS containing 500 nM of S—CO) was introduced over the biochip for another five minutes (30 μL/min) for the analysis of molecular dissociation. The biochip was regenerated by flowing 1 M of NaCl in the channel for two minutes (100 μL/min) followed by the PBS. The dissociation rate constant (koff) was obtained by fitting the binding profiles with the Scrubber 2.0 software as provided by the manufacturer.
# Because real applications were involve not only aptamers and COs, but also target proteins, surface plasmon resonance (SPR) was used to directly examine the intermolecular hybridization-mediated protein dissociation (FIG. 11).
# PDGF-BB [5] = target: T1, PDGF-BB; experiment: SPR; virtually same as S1; conditions: tags: R&D Systems; amine-coupled to SPR chip; chain copies: 2 (inferred, homodimer)
# Description: as §1
# PDGF-BB [6] = target: T1, PDGF-BB; experiment: SPR; COs did not significantly accelerate dissociation; koff only in figure; conditions: tags: R&D Systems; amine-coupled to SPR chip; chain copies: 2 (inferred, homodimer); three-stem junction
# T1 sequence (P01127 82-190, one chain of several): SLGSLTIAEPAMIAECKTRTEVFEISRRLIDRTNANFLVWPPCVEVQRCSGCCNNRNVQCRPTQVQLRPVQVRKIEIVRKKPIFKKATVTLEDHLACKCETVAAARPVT
binder,measurement,setting,value
"GCGATACTCCACAGGCTACGGCACGTAGAGCATCACCATGATCCTG (ssDNA, 5'-Acrydite) [anti-PDGF-BB aptamer (higher affinity, 46-nt)]",Kd,PDGF-BB [1]; three-stem junction with 10-nt 5' tail,25 nM
GCGATACTCCACAGGCTACGGCACGTAGAGCATCACCATGATCCCA (ssDNA) [M2],Kd,PDGF-BB [2],109 nM
GCGATACTCCACAGGCTACGGCACGTAGAGCATCACCATGATCCTG (ssDNA) [S1],binding result,PDGF-BB [3],binds
GCGATACTCCACAGGCTACGGCACGTAGAGCATCACCATGATCTCA (ssDNA) [M3],Kd,PDGF-BB [2],354 nM
GCGATACTCCACAGGCTACGGCACGTAGAGCATCACCATGATCCTA (ssDNA) [M1],Kd,PDGF-BB [2],27.6 nM
"61-nt anti-PDGF-BB aptamer (ssDNA, 5'-NH2) DNA: AAAAAAAAAAACAGGCTACGGCACGTAGAGCATCACCATGATCCTGTGACTTGAGCAAAAT",koff,PDGF-BB [4],0.00065 s⁻¹
GCAACTGCTCACAGGCTACGGCACGTAGAGCATCACCATGATCCTG (ssDNA) [S9],binding result,PDGF-BB [5],binds
CAATTCCGCGACAGGCTACGGCACGTAGAGCATCACCATGATCCTG (ssDNA) [S2],binding result,PDGF-BB [5],binds
CATGAGCCCTACAGGCTACGGCACGTAGAGCATCACCATGATCCTG (ssDNA) [S10],binding result,PDGF-BB [5],binds
TCGCACATGCACAGGCTACGGCACGTAGAGCATCACCATGATCCTG (ssDNA) [S6],binding result,PDGF-BB [5],binds
CGCCATTCAGACAGGCTACGGCACGTAGAGCATCACCATGATCCTG (ssDNA) [S4],binding result,PDGF-BB [5],binds
CCACGGTCTAACAGGCTACGGCACGTAGAGCATCACCATGATCCTG (ssDNA) [S3],binding result,PDGF-BB [5],binds
"GCGATACTCCACAGCTGACGGCACGGTAAGCATCACCATGATGTCC (ssDNA, 5'-Acrydite) [control (lower-affinity) aptamer]",Kd,PDGF-BB [1],220 nM
ACAGGCTACGGCACGTAGAGCATCACCATGATCCTG (ssDNA) [36-nt truncated aptamer],binding result,PDGF-BB [6],binds
